Reference: patent US20100196403A1, “ANTIBODY CONJUGATES FOR CIRCUMVENTING MULTI-DRUG RESISTANCE” (priority 2007, published 2010)

What was measured:
[1] = molecular target: human MDR1 (P-gp) expressed in HU-2 mouse lymphoma cells (human) (UniProt P08183); assay: cell-based or functional assay
HU-2 cells = assay: Cell viability of HU-2 cells with toxic drugs (Trypan blue exclusion); format: cell-based, mouse; settings: 2 μg/ml Adriamycin or 1 μg/ml colchicine, FIG. 6A
Procedure: T-25 cells (Hochman et al, 1984), derived from S49 mouse lymphoma, were transduced with a retrovirus containing the human MDR1 cDNA, as previously described (Galski et al. 1995). The resultant cells (HU-2) are cross-resistant to colchicine, doxorubicin, vinblastine and actinomycin D, and their resistance to colchicine is reversed by verapamil. T-cell lymphoma derived cell lines were grown in Dulbecco's modified eagle medium (DMEM) supplemented with 10% heat-inactivated horse serum, at 37° C. in a humidified atmosphere containing 5% CO2.
To measure the sensitivity of HU-2 cells to toxic drugs, 1×10^5 cells per well were incubated with 10 μg of the conjugate for 4 hrs. 2 μg/ml of Adriamycin or 1 μg/ml of colchicine was then added and the cells incubated for a further 96 hrs. Stocks were prepared in DMSO. The maximal final concentration of DMSO in the assays was 0.5% (v/v). After 96 h, the cells were checked by light microscopy and viable cells were counted by Trypan blue exclusion.

ABCB1 transporter = molecular target: T1, ABCB1 transporter (Cricetulus griseus, UniProt P21448); format: cell-based, Chinese hamster
T1 construct: In drug resistant cells, calcein-AM is extruded by the ABCB1 transporter; endogenous in cells; host or cells: CHO cell clone CH(R)B30 (colchicine-resistant)
T1 sequence (P21448 whole entry): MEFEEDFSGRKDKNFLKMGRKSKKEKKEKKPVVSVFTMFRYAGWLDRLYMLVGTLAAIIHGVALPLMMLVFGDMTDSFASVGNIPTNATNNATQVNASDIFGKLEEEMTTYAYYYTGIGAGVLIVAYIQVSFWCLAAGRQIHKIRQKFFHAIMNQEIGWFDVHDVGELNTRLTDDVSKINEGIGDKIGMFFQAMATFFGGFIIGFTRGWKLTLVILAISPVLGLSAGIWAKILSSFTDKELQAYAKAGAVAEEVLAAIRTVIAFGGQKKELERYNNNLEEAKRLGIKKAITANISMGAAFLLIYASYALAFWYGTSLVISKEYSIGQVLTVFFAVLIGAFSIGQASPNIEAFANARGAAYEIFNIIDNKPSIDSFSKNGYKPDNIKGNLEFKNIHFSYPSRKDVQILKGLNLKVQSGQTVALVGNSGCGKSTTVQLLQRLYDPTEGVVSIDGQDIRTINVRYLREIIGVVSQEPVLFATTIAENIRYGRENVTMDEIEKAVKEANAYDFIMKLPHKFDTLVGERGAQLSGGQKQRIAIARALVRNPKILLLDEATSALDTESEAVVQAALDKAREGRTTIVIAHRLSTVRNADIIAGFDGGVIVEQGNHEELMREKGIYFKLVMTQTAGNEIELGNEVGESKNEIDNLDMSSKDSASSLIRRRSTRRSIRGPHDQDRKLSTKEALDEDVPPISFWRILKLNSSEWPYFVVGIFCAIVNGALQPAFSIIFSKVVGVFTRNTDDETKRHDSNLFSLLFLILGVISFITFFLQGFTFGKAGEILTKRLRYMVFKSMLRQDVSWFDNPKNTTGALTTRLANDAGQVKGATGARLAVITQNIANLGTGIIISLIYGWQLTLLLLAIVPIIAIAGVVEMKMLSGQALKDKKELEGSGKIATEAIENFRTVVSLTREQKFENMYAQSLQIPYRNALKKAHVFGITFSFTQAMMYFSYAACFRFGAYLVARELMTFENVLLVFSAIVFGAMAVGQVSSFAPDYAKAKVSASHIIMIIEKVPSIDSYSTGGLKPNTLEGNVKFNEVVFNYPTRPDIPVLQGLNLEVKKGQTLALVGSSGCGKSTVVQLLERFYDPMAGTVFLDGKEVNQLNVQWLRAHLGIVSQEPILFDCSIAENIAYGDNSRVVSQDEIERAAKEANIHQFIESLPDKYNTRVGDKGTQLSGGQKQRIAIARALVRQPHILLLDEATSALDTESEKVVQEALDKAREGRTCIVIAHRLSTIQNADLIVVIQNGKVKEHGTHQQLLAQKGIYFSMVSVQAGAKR
Procedure: Cells were grown in alpha-MEM medium supplemented with 10% Fetal Calf Serum (FCS), penicillin 50 U/ml, streptomycin 50 μg/ml, and ceftazidim 50 μg/ml. For propagation of the clone, colchicine was added to this medium to a final concentration of 20 μg/ml.
Cells were diluted in alpha MEM to about 1.5×10^6 cells/ml. Volumes of 1 ml were distributed to 2 ml Eppendorf tubes. […] The capped tubes were positioned with their longitudinal axes inclined to 45° on a roller platform and were rotated in the incubator. The cells were incubated with conjugates, proteins, or peptides, respectively, at various concentrations and for various times. […] Calcein-AM was added to a final concentration of 1 μM or 2 μM at least 30 min before the end of incubation. Calcein-AM, a substrate of ABCB1, is a hydrophobic non-fluorescent substance that easily enters cells. Once in the cytoplasm, calcein-AM is hydrolysed, and the ensuing fluorescent calcein is retained within the cells. In drug resistant cells, calcein-AM is extruded by the ABCB1 transporter. […] All vials were stopped by addition of ice-cold medium and then put on ice for subsequent flow cytometry (beginning about 1 h after the end of incubation). […] 100,000 cells, in a few experiments 50,000 cells per vial were counted. […] The median channel xM of the y distribution and yM, the number of cells in xM, were determined.

Sequence of human MDR1 (P-gp) expressed in HU-2 mouse lymphoma cells (human) (P08183 whole entry): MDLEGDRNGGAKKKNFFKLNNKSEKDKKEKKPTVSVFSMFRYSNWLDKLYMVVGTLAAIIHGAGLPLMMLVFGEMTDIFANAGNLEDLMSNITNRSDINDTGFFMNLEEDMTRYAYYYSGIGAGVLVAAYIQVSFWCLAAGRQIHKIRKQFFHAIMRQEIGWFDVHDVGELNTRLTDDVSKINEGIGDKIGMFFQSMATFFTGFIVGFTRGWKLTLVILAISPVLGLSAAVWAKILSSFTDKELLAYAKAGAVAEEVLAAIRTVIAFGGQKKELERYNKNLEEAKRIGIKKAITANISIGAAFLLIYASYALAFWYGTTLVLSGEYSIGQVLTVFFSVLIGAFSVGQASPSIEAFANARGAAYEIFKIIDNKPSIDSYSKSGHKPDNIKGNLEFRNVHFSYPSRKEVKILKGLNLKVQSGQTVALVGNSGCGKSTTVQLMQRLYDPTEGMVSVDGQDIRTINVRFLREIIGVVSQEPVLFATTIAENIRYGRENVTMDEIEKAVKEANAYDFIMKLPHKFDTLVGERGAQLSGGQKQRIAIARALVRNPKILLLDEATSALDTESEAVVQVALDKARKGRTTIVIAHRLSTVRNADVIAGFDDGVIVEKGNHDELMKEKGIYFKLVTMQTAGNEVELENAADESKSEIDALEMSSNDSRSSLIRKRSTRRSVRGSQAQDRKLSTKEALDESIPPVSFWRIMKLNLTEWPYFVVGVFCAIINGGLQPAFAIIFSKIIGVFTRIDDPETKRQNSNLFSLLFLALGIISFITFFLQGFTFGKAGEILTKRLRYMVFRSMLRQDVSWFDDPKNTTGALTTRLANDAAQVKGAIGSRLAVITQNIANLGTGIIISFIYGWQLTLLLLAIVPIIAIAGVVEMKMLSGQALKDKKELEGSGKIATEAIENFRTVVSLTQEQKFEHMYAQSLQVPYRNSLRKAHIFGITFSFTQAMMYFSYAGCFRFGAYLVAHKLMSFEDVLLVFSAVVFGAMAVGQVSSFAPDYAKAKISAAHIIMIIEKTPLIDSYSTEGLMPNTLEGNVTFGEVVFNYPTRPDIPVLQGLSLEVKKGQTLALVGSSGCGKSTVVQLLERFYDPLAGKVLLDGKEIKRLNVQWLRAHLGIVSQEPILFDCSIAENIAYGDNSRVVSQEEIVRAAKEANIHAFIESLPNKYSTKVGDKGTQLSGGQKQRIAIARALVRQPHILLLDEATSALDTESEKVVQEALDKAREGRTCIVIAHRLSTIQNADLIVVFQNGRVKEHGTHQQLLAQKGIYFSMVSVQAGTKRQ

C219-S-S-(37-72)Tat conjugate (Mab C219 linked through PDPH and a disulfide bond to Cys 37 of HIV-1 (37-72)Tat) (antibody)
cell death of HU-2 cells with Adriamycin 2 µg/ml in the presence of 10 µg conjugate, Trypan blue count after 96 h, normalized to drug without conjugate [1]: 68%
cell death of HU-2 cells with colchicine 1 µg/ml in the presence of 10 µg conjugate, Trypan blue count after 96 h, normalized to drug without conjugate [1]: 91%

COc1cccc2c1C(=O)c1c(O)c3c(c(O)c1C2=O)C[C@@](O)(C(=O)CO)C[C@@H]3O[C@H]1C[C@H](N)[C@H](O)[C@H](C)O1 [adriamycin, doxorubicin]
viability of HU-2 cells with drug, no conjugate (HU-2 cells): remain viable

CFITKALGISYGRKKRRQRRRPPQGSQTHQVSLSKQ [(37-72)Tat]
shift in the flow cytometry histogram (ABCB1 transporter; 1 μM, 210 min, FIG. 4F): small
effect on MDR activity (summary of results) (ABCB1 transporter; colchicine-resistant CH(R)B30 cells): only a marginal effect

COc1cc2c(c(OC)c1OC)-c1ccc(OC)c(=O)cc1[C@@H](NC(C)=O)CC2 [colchicine]
viability of HU-2 cells with drug, no conjugate (HU-2 cells): remain viable
